From paper PMC3448794 (Biochemistry, 2012)

T1: human L-asparaginase (hASNase3), cleaved state (alpha- and beta-chains) (human, UniProt Q7L266 1-167; Q7L266 168-308)
T1 sequence (looked up) 1: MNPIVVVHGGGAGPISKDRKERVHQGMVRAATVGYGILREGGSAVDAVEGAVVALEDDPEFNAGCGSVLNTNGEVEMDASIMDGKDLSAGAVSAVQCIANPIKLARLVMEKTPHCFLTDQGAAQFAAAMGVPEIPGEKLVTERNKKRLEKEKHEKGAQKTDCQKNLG
T1 sequence (looked up) 2: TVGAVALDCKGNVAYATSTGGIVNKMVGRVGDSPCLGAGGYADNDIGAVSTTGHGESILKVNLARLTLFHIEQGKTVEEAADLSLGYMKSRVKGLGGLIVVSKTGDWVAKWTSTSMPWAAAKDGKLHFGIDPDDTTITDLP

T2: alpha-chain of cleaved human L-asparaginase (hASNase3) (human, UniProt Q7L266 1-167)
T2 sequence (looked up): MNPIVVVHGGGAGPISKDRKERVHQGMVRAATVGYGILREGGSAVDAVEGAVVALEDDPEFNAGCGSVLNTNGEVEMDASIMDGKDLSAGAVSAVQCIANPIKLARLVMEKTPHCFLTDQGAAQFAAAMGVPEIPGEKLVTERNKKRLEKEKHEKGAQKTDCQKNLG

B1: human L-asparaginase (hASNase3), uncleaved state (enzyme, UniProt Q7L266 1-308, looked up)
chain: MNPIVVVHGGGAGPISKDRKERVHQGMVRAATVGYGILREGGSAVDAVEGAVVALEDDPEFNAGCGSVLNTNGEVEMDASIMDGKDLSAGAVSAVQCIANPIKLARLVMEKTPHCFLTDQGAAQFAAAMGVPEIPGEKLVTERNKKRLEKEKHEKGAQKTDCQKNLGTVGAVALDCKGNVAYATSTGGIVNKMVGRVGDSPCLGAGGYADNDIGAVSTTGHGESILKVNLARLTLFHIEQGKTVEEAADLSLGYMKSRVKGLGGLIVVSKTGDWVAKWTSTSMPWAAAKDGKLHFGIDPDDTTITDLP
B2: beta-chain of cleaved human L-asparaginase (hASNase3) (domain or fragment, UniProt Q7L266 168-308, looked up)
chain: TVGAVALDCKGNVAYATSTGGIVNKMVGRVGDSPCLGAGGYADNDIGAVSTTGHGESILKVNLARLTLFHIEQGKTVEEAADLSLGYMKSRVKGLGGLIVVSKTGDWVAKWTSTSMPWAAAKDGKLHFGIDPDDTTITDLP

Columns and labels:
[1] = molecular target: T1, human L-asparaginase (hASNase3), …; test: crystal structure
[2] = molecular target: T2, alpha-chain of cleaved human …; test: crystal structure

| Binder | binding result [1] | binding result [2] |
| --- | --- | --- |
| B1 | binds | – |
| B2 | – | binds |
